One may read the Kd as the free concentration of one partner at which half of the binding sites on the other are occupied at equilibrium, for simple one-to-one binding. As a reminder, the koff is the first-order rate constant of dissociation. By kon is commonly meant the rate constant with which the complex forms. Usually EC50 stands for the concentration needed to bring the measured effect to its halfway point. In general, IC50 refers to the concentration that inhibits the measured activity by half.

Experimental findings from patent US20150203579A1 (Regeneron, published 2015) are described below.

The target of assay [1] is T1, full length human PD-1 on HEK293/hPD-1 cells (human, UniProt Q15116 25-288). Put plainly: FACS, 100 nM mAb.
Assay [2] concerns the target PD-1 chimera: extracellular domain of human PD-1 with trans-membrane and cytoplasmic domains of human CD300a, … (human, UniProt Q9UGN4 181-299, limits assumed). In words: cell-based or functional assay.
Assay [3] has as its target T2, monkey PD-1 with mFc (monkey).
T2 construct: also called monkey PD-1-mFc; monkey PD-1 dimer
T2 chain: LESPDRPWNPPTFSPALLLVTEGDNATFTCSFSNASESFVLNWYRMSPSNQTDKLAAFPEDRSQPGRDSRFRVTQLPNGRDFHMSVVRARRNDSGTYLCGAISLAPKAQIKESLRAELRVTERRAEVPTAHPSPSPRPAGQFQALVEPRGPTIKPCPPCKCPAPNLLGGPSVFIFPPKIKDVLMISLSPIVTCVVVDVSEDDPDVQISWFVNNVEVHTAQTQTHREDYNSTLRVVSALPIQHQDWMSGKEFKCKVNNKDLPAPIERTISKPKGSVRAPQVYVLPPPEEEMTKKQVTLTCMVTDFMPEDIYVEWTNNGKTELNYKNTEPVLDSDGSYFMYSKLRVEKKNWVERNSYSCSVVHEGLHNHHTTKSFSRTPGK
Put plainly: SPR, captured mAb, 25 C.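 Further: purified anti-PD-1 antibodies tested on Biacore 4000 or T200 instruments, rate constants obtained via 1:1 binding model fit, with KD as kd/ka and half-life as ln2/(60·kd).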

Assay [4] addresses T2, monkey PD-1 with mFc. Put plainly: SPR, captured mAb, 37 C.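 Further: Real-time Biacore surface plasmon resonance biosensor readout of PD-1 reagent binding to purified anti-PD-1 monoclonal antibodies.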
Assay [5] has as its target T1, full length human PD-1 on HEK293/hPD-1 …. In words: FACS, 100 nM mAb, HEK293/hPD-1 cells.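 Further: antibodies incubated with cells for 15-30 min on ice, bound antibody detected through a secondary F(ab′)2 by flow cytometry, with parental HEK293 cells tested in parallel.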 In general terms: A flow cytometer gives signals particle by particle.
Assay [6] has the same target. In words: FACS dose response, HEK293/hPD-1 cells.
The target of assay [7] is T3, recombinant human PD-1 dimer expressed with a C-terminal mouse IgG2a Fc tag (human).
T3 construct: also called hPD-1-mFc
In words: competition ELISA: 1.5 nM hPD-1-mFc to coated hPD-L1-hFc.

Assay [8] deals with T4, recombinant human PD-1 expressed with a C-terminal human IgG1 Fc tag (human).
T4 construct: also called hPD-1-hFc; hPD1-hFc
In words: SPR Biacore 3000: 100 nM hPD-1.hFc + 500 nM mAb to captured hPD-L1.mFc.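 Further: inhibition study with anti-PD-1 mAbs, SPR responses tracked in real time and read at the close of each step.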

Assay [9] addresses T3, recombinant human PD-1 dimer expressed …. In words: competition ELISA: 1.5 nM hPD-1-mFc to coated hPD-L1-hFc; * below theoretical bottom 7.5E-10 M. (ELISA stands for enzyme-linked immunosorbent assay.)
Assay [10] addresses T5, dimeric biotinylated human PD-1 protein with a C-terminal human Fc tag (human, biotinylated (sites not given)).
T5 construct: also called biot-hPD-1-hFc
Put plainly: competition ELISA: 200 pM biot-hPD-1-hFc to coated hPD-L1-mFc.

In assay [11] the target is T6, recombinant human PD-L1 expressed with a C-terminal mouse IgG2a Fc tag (human).
T6 construct: also called hPD-L1-mFc; hPD-L1.mFc
Put plainly: SPR Biacore 3000: 500 nM mAb alone (no hPD-1.hFc) over captured hPD-L1.mFc surface, control. Background: Surface plasmon resonance follows binding to a sensor surface in real time, without labels.

B1: H4H9057P2 (antibody, V domains shown)
VH: EVQLVESGGGLVQSGRSLRLSCAASGFTFDDYAMHWVRQPPGKGLEWVSGINWNRGRTGYADSVKGRFTISRDNAKNSLYLQMNDLRVEDTALYYCAKAEQWLDEGYFDYWGQGTLVTVSS
VL: not shown
notes: fully human; H4H prefix (human IgG4 Fc)
For the molecule B1, the “ratio of MFI HEK293/hPD-1 to HEK293 parental cells” value in [1] turned out to be 46.1. Besides, in assay [2], the “Concentration (M) of Antibody at 150% activation” value was found to be 2.68e-08 M and the “Emax mean [%] @ 100 nM” value turned out to be 212%. In addition, in assay [3], the “100 nM Monkey PD-1-mFc Bound (RU)” value was found to be 75 RU, the dissociation constant Kd stood at 2.98 nM, the koff amounted to 0.000303 s⁻¹ and the kon was 102000 M⁻¹ s⁻¹. The t1/2 in assay [3] stood at 38 min. Also, in [4], the “100 nM Monkey PD-1-mFc Bound (RU)” value was found to be 28 RU, binding was characterised by a dissociation constant (Kd) of 29.6 nM, the dissociation rate constant (koff) came out at 0.00477 s⁻¹ and the on-rate (kon) came to 161000 M⁻¹ s⁻¹. In assay [4], this molecule returned a t1/2 of 2.4 min. In assay [5], this molecule had an MFI of 6500 MFI. Further, in [6], the EC50 stood at 0.236 nM and the “Max Geom. Mean MFI @ 100 nM” value was determined as 20000 MFI. Also, in assay [7], the “% blocking at 200 nM antibody” value came to 98%. Moreover, in assay [8], the “% Blocking” value was found to be 43% and the “binding of the mixture (RU)” value came to 57 RU. For the same molecule, the IC50 in [9] is 0.19 nM.

B2: H4xH9135P2 (antibody, V domains shown)
VH: EVQLVESGGSVVRPGGSLRLSCVVSGFTFEDYGLSWVRQIPGKGLEWVSGISWTGGNTGYADSVKGRFTISRDNAKNSLYLQMNSLRAEDTALYHCTRDRQWLMQWYFDYWGQGTLVTVSS
VL: not shown
notes: human IgG4 Fc with 2 or more amino acid changes (US20100331527)
As for B2, the “ratio of MFI HEK293/hPD-1 to HEK293 parental cells” value in assay [1] was determined as 82.2. In assay [2], the “Concentration (M) of Antibody at 150% activation” value is 1.55e-09 M and the “Emax mean [%] @ 100 nM” value was determined as 193%. In addition, in assay [3], the “100 nM Monkey PD-1-mFc Bound (RU)” value was determined as 74 RU, the Kd is 0.602 nM, the koff was determined as 0.000143 s⁻¹ and the association rate constant (kon) is 238000 M⁻¹ s⁻¹. The same molecule came in with a t1/2 in assay [3] of 81 min. In assay [4], the “100 nM Monkey PD-1-mFc Bound (RU)” value was found to be 52 RU, the Kd was determined as 2.32 nM, the koff is 0.000794 s⁻¹ and the kon was 342000 M⁻¹ s⁻¹. Further, the t1/2 in assay [4] amounted to 15 min. Moreover, the MFI in assay [5] came to 9380 MFI. In [6], the EC50 stood at 0.105 nM and the “Max Geom. Mean MFI @ 100 nM” value is 32800 MFI. In [7], the “% blocking at 200 nM antibody” value came to 97% and the IC50 worked out at 1.1 nM. In assay [10], the “% blocking at 50 nM antibody” value worked out at 96% and the IC50 amounted to 0.15 nM. In assay [8], the “% Blocking” value is 102% and the “binding of the mixture (RU)” value is -3 RU. Also, in assay [11], the “500 nM of anti-PD-1 monoclonal antibody (RU)” value (shortened to “500 nM”) was -3 RU.

B3: H4H9019P (antibody, V domains shown)
VH: EVQLVESGGGVVRPGGSLRLSCAASGFTFDDYGMSWVRQVPGKGLEWVSGISWNDGKTVYAESVKGRFIISRDNAKNSLYLEMNSLRAEDTALYYCARDWQYLIERYFDYWGQGTLVTVSS
VL: not shown
notes: as for B1
For the molecule B3, in assay [2], the “Concentration (M) of Antibody at 150% activation” value came out at 1.79e-08 M and the “Emax mean [%] @ 100 nM” value was found to be 180%. Also, in assay [3], the “100 nM Monkey PD-1-mFc Bound (RU)” value came to 31 RU, the Kd worked out at 1.97 nM and the t1/2 worked out at 129 min. Also, in [4], the “100 nM Monkey PD-1-mFc Bound (RU)” value amounted to 36 RU; the affinity, expressed as Kd, was 3.17 nM; the t1/2 was found to be 45 min. In assay [5], this molecule displayed an MFI of 8610 MFI. Further, in assay [6], it took 1.4 nM to reach a half-maximal effect (EC50) and the “Max Geom. Mean MFI @ 100 nM” value came to 29200 MFI. Moreover, in assay [7], the “% blocking at 200 nM antibody” value was 98% and the IC50 came out at 1.3 nM. In assay [8], the “binding of the mixture (RU)” value is -1 RU. Further, the “500 nM” value in assay [11] is -2 RU.

B4: H4xH9120P2 (antibody, V domains shown)
VH: QVQLVQSGAEVKRPGASVKVSCKASGYTFTSFYMYWVRQAPGQGLEWMGIINPSDGSTSNAQKFQGRVTMTRDTSTSTVYMELSSLRSEDTAVYYCARRVAGDIFDIWGQGTMVTVSS
VL: not shown
notes: as for B2
Consider B4, for which, in [1], the “ratio of MFI HEK293/hPD-1 to HEK293 parental cells” value was 91.9. Besides, in [2], the “Concentration (M) of Antibody at 150% activation” value worked out at 1.1e-08 M and the “Emax mean [%] @ 100 nM” value worked out at 166%. Also, in [3], the “100 nM Monkey PD-1-mFc Bound (RU)” value came out at 52 RU, binding was characterised by a dissociation constant (Kd) of 1.91 nM, the koff amounted to 0.000112 s⁻¹ and the kon was found to be 58400 M⁻¹ s⁻¹. The molecule further came in with a t1/2 in assay [3] of 104 min. Besides, in assay [4], the “100 nM Monkey PD-1-mFc Bound (RU)” value worked out at 46 RU, the equilibrium dissociation constant (Kd) came to 6.06 nM, the koff stood at 0.000502 s⁻¹ and the kon amounted to 82900 M⁻¹ s⁻¹. This molecule also gave a t1/2 in assay [4] of 23 min. The MFI in assay [5] worked out at 9980 MFI. Besides, in assay [6], the EC50 was 0.48 nM and the “Max Geom. Mean MFI @ 100 nM” value was determined as 34100 MFI. Besides, in assay [7], the “% blocking at 200 nM antibody” value was found to be 98% and the IC50 stood at 1 nM. In addition, in assay [10], the “% blocking at 50 nM antibody” value was determined as 96% and the IC50 was 0.39 nM. Besides, in assay [8], the “% Blocking” value is 100% and the “binding of the mixture (RU)” value is 0 RU. For the same molecule, in assay [11], the “500 nM” value is 1 RU.

B5: H4xH9128P2 (antibody, V domains shown)
VH: QVQLQESGPGLVKPSETLSLTCTVSGGSISSYHWNWIRQSPGKGLEWIGYIYYIGSTDYNPSLESRVTISVDTSKNQFSLKLSSVTAADTAVYYCARVPVGATGASDVWGQGTMVTVSS
VL: not shown
notes: as for B2
Consider B5, for which, in assay [3], the “100 nM Monkey PD-1-mFc Bound (RU)” value is 64 RU, the Kd turned out to be 1.57 nM, the off-rate (koff) turned out to be 0.000124 s⁻¹ and the kon amounted to 78700 M⁻¹ s⁻¹. The molecule further had a t1/2 in assay [3] of 94 min. In assay [4], the “100 nM Monkey PD-1-mFc Bound (RU)” value came out at 60 RU, the Kd is 4.36 nM, the koff was 0.000816 s⁻¹ and the on-rate constant (kon) stood at 187000 M⁻¹ s⁻¹. This molecule also registered a t1/2 in assay [4] of 14 min. The MFI in assay [5] turned out to be 9080 MFI. Moreover, the “% blocking at 200 nM antibody” value in [7] stood at 98%. For the same molecule, in assay [10], the “% blocking at 50 nM antibody” value turned out to be 97% and the IC50 is 0.19 nM. In addition, in assay [8], the “% Blocking” value stood at 105% and the “binding of the mixture (RU)” value was -5 RU. In assay [11], the “500 nM” value was -5 RU. The IC50 in assay [9] turned out to be 0.64 nM.

B6: H4xH9145P2 (antibody, V domains shown)
VH: QVQLVESGGGVVQPGRSLRLSCSASGFTFSAYAMHWVRQAPGKGLEWVAAISYGGSDKYYADSVKGRFTISRDNSKNTLYLQMNSLRTDDTAVYYCAKSAHWNFFFDYWGQGTLVTVSS
VL: not shown
notes: as for B2
In the case of B6, in [1], the “ratio of MFI HEK293/hPD-1 to HEK293 parental cells” value turned out to be 51.2. In assay [2], the “Concentration (M) of Antibody at 150% activation” value was 2.4e-09 M and the “Emax mean [%] @ 100 nM” value turned out to be 185%. Also, in assay [3], the “100 nM Monkey PD-1-mFc Bound (RU)” value stood at 84 RU; the affinity, expressed as Kd, was 2.08 nM; the dissociation rate constant (koff) was 0.00015 s⁻¹; the association rate constant (kon) was 72400 M⁻¹ s⁻¹. This molecule yielded a t1/2 in assay [3] of 77 min. Moreover, in assay [4], the “100 nM Monkey PD-1-mFc Bound (RU)” value turned out to be 94 RU, the Kd turned out to be 4.04 nM, the off-rate constant (koff) came out at 0.000609 s⁻¹ and the kon was 151000 M⁻¹ s⁻¹. This molecule also had a t1/2 in assay [4] of 19 min. The MFI in assay [5] is 11600 MFI. Moreover, in assay [6], the 50% effective concentration (EC50) is 0.232 nM and the “Max Geom. Mean MFI @ 100 nM” value was determined as 30600 MFI. For the same molecule, in [7], the “% blocking at 200 nM antibody” value was 90% and the IC50 is 0.93 nM. For the same molecule, in assay [10], the “% blocking at 50 nM antibody” value was found to be 97% and the half-inhibitory concentration (IC50) is 0.35 nM. For the same molecule, in assay [8], the “% Blocking” value was determined as 106% and the “binding of the mixture (RU)” value is -6 RU. In addition, the “500 nM” value in assay [11] is -8 RU.
